Results taken from US20160032263A1.
Several values for one entry are separate records, joined by “and”; a condition that tells them apart may be missing. Equal entries are not always repeated.

Target: histidine-tagged HIV-1 integrase protein (IN) (HIV-1) (UniProt P04585)
Assay: cell-based or functional assay

Substance | inhibition of IN enzymatic activity
Rev 13-23 peptide (Rev-derived peptide, as used in the IN activity assay) (from UniProt P04618 13-23) | 60 % inhibition and 70 % inhibition
Rev 53-67 peptide (Rev-derived peptide, as used in the IN activity assay) (from UniProt P04618 53-67) | 60 % inhibition and 70 % inhibition
